Data: patent publication US12359199B2, “Regulation of gene expression via aptamer-mediated control of self-cleaving ribozymes” (MEIRAGTX UK II LIMITED, priority 2016, dated 2025)

Legend:
Assay type in all cases: cell-based
[1] = system: firefly luciferase expression in HEK 293 cells; experiment: Firefly luciferase assay of HEK 293 cells transfected with twister ribozyme constructs (no ligand); settings: twister in 3′ UTR of firefly luciferase, compared to pFLuc control construct
Excerpt: Plasmid constructs: The following primers were used to generate constructs GFP_wasp_No Sac 0HP or GFP_wasp_No Sac 3HP: forward primers NoSac_Fwd (5′ […]) and NoSac3HP_Fwd (5′ […]) and reverse primer MfeI Rev (5′ […]). GFP_wasp-twister vector was used as template and the PCR-amplified DNA fragments were digested with BsrGI and MfeI and cloned into pEGFP-C1 digested with BsrGI and MfeI enzymes. The EGFP gene in pEGFP-C1 was replaced with the firefly luciferase gene to generate the pFLuc vector using Gibson cloning strategy and cloning kit (NEB). The same strategy was used to generate constructs Luc_wasp_No Sac 0HP and Luc_wasp_No Sac 3 HP by replacing the EGFP gene in constructs GFP_wasp_no Sac 0HP and GFP_wasp_no Sac 3HP with the firefly luciferase gene.
Firefly luciferase assay of cultured cells: 24 hours after media change, plates were removed from the incubator, equilibrated to RT for several minutes on a lab bench, and then aspirated. Glo-lysis buffer (Promega, 100 μL, RT) was added, and the plates allowed to remain at RT for at least 5 minutes. […] Following a 5-minute incubation at RT, luminescence was measured using a Tecan machine with 500 mSec read time. The luciferase activity was expressed as mean relative light unit (RLU)±S.D.

[2] = system: firefly luciferase expression in HEK 293 cells; experiment: Firefly luciferase assay of transfected HEK 293 cells treated with or without guanine or guanosine; settings: riboswitch and linker2A downstream of start codon, guanine vs untreated control
Protocol: Firefly luciferase assay of cultured cells: 24 hours after media change, plates were removed from the incubator, equilibrated to RT for several minutes on a lab bench, and then aspirated. Glo-lysis buffer (Promega, 100 μL, RT) was added, and the plates allowed to remain at RT for at least 5 minutes. The well contents were mixed by 50 μL trituration, and 20 μL of each sample was mixed with 20 μL of bright-glo reagent (Promega) that had been diluted to 10% in glo-lysis buffer. 96 wells were spaced on an opaque white 384-well plate. Following a 5-minute incubation at RT, luminescence was measured using a Tecan machine with 500 mSec read time. The luciferase activity was expressed as mean relative light unit (RLU)±S.D. […]
Transfection and aptamer ligand treatment: HEK 293 cells were transfected as described in Example 1. Four hours after transfection, the media was aspirated, and new media with or without 500 μM guanine or 1 mM guanosine (Sigma) was added. Luciferase assay was performed 20 to 24 hours after guanine or guanosine treatment as described in Example 2. The reduction fold was expressed as the quotient of luciferase activity obtained in the absence of aptamer ligand divided by the value obtained in the presence of the aptamer ligand.
Oligos containing either a start codon or coding sequence for the first 10 amino acids of GFP and waspGua16 followed by a linker2A sequence were synthesized (IDT) and cloned into the pLuc vector using the Gibson cloning strategy and cloning kit (NEB). Transfection and luciferase assay of cultured cells were performed as described in Example 3. […]

[3] = system: GFP expression in HEK 293 cells; experiment: GFP fluorescence intensity of transfected HEK 293 cells; settings: ribozyme in 3′ UTR of EGFP; for reduction (inhibition/suppression) of GFP expression / fold reduction (suppression) of GFP expression: compared to pEGFP-C1 control
Excerpt: Plasmid constructs: oligonucleotides containing wild type or mutant twister ribozyme sequences, either from Nasonia Vitripennis (wasp) or from environmental samples, flanked by BsrGI and MfeI sites, were synthesized (IDT). The synthesized oligonucleotides (“oligos”) were digested with BsrGI and MfeI and cloned into pEGFP-C1 (Clontech) digested with the compatible restriction enzymes. The sequences of the constructed vectors were verified by DNA sequencing (Genewiz).
Transfection and measurement of GFP fluorescence: 3.5×10^4 HEK 293 cells were plated in a 96-well flat bottom plate the day before transfection. Plasmid DNA (500 ng) was added to a tube or a 96-well U-bottom plate. Separately, TransIT-293 reagent (Mirus; 1.4 μl) was added to 50 μl Opti-mem I media (Life Technologies), and allowed to sit for 5 minutes at room temperature (“RT”). Then, 50 μl of this diluted transfection reagent was added to the DNA, mixed, and incubated at RT for 20 min. Finally, 7 μl of this solution was added to a well of cells in a 96-well plate. […] GFP fluorescence intensity was measured by Tecan plate reader, using Excitation wavelength at 484 nm, Emission wavelength at 510 nm and Excitation bandwidth at 5 nm. The GFP fluorescence intensity was expressed as the value generated by GFP constructs subtracted by the value generated by LacZ construct.
Measurement of GFP fluorescence intensity was performed as described in Example 1.

B1: Luc_wasp_No Sac 3HP: Firefly luciferase construct with wasp twister with 3 bp stem (3HP) at P1 stem in 3′ UTR (nucleic acid)
DNA: TCAGAGAGATCCTCATAAAGGCCAAGAAGGGCGGAAAGATCGCCGTGTAAACGCCTTGTAATGCGGCCGTGTAAATAATTTACACGTCGGTCTCAAGCCCGATAAACGCAGAGAGCAAGGCGGCCGCCATACCACATTTGTAGAGGTTTTACTTGCTTTAAAAAACCTCCCACACCTCCCCCTGAACCTGAAACATAAAATGAATGC
modifications: misc_feature 1..207 wasp_No Sac 3HP in pLuc
notes: Firefly luciferase construct with wasp twister with 3 bp stem (3HP) at P1 stem in 3′ UTR
B1 was tested, and the “fold reduction of luciferase activity” value [1] was 254 fold.

B2: ATG_waspGua16: waspGua16 and linker2A inserted downstream of ATG and upstream of remaining luciferase coding sequence (nucleic acid)
DNA: ATGACGCCTTGTAATGCGGCATATAATCGCGTGGATATGGCACGCAAGTTTCTACCGGGCACCGTAAATGTCCGACTATTCGGTCTCAAGCCCGATAAACGCAGAGAGCAAGGCGAAGGCGGATCTTCAGGTAGTGGCGAGGGCAGAGGAAGTCTTCTAACATGCGGTGACGTGGAGGAGAATCCCGGCCCCGAAGACGCCAAAAACATAAAGAAAGGCCCGGCGCCA
modifications: misc_feature 1..228 ATG_wtWaspGua16 in pLuc
B2 was tested, and the “reduction of luciferase gene expression in the presence of guanine” value [2] was 68%.

B3: 10aa_waspGua16: waspGua16 and linker2A inserted downstream of the coding sequence for the first 10 amino acids of GFP, in pLuc (nucleic acid)
DNA: ATGGTGAGCAAGGGCGAGGAGCTGTTCACCACGCCTTGTAATGCGGCATATAATCGCGTGGATATGGCACGCAAGTTTCTACCGGGCACCGTAAATGTCCGACTATTCGGTCTCAAGCCCGATAAACGCAGAGAGCAAGGCGAAGGCGGATCTTCAGGTAGTGGCGAGGGCAGAGGAAGTCTTCTAACATGCGGTGACGTGGAGGAGAATCCCGGCCCCGAAGACGCCAAAAACATAAAGAAAGGCCCGGCGCCA
modifications: misc_feature 1..255 10aa_wtWaspGua16 in pLuc
With B3 the “reduction of luciferase gene expression in the presence of guanine” value [2] was 68%.

B4: es-twister: Twister ribozyme sequence from environmental sample cloned into the 3′ UTR in pEGFP-C1 vector (nucleic acid)
DNA: GTGACCGCCGCCGGGATCACTCTCGGCATGGACGAGCTGTACAAGTAAACCGCGGCAATAAAGCGGTTACAAGCCCGCAAAAATAGCAGAGTAATGTCGCGATAGCGCGGCATTAATGCAGCTTTATTGGCGGCCGCCATACCACATTTGTAGAGGTTTTACTTGCTTTAAAAAACCTCCCACACCTCCCCCTGAACCTGAAACATAAAATGAATGC
modifications: misc_feature 1..217 es-twister in pEGFPC1
For B4, the “effect on GFP expression (in words)” value [3] was “significantly reduced target gene expression” and the “reduction (inhibition/suppression) of GFP expression” value (shortened to “reduction (inhibition/suppression)”) [3] was “about 50%”.

B5: wasp-twister: Twister ribozyme sequence from N. vitripennis cloned into the 3′ UTR in pEGFP-C1 vector (nucleic acid)
DNA: GTGACCGCCGCCGGGATCACTCTCGGCATGGACGAGCTGTACAAGTAAACCGCGGCTTGTAATGCGGCCGTGTAAATAATTTACACGTCGGTCTCAAGCCCGATAAACGCAGAGAGCAAGGCGGCCGCCATACCACATTTGTAGAGGTTTTACTTGCTTTAAAAAACCTCCCACACCTCCCCCTGAACCTGAAACATAAAATGAATGC
modifications: misc_feature 1..208 wasp-twister in pEGFP-C1
B5 was tested, and the “effect on GFP expression (in words)” value [3] was “reduced expression of GFP”, the “fold reduction (suppression) of GFP expression” value (“fold reduction (suppression)” below) [3] was 36 fold and the “reduction (inhibition/suppression)” value [3] was 97%. For the same molecule, the “fold reduction (suppression)” value ([3]; listed as GFP-twister) was 37 fold, the “fold reduction (suppression)” value ([3]; listed as Wasp-twister) was about 36 fold and the “reduction (inhibition/suppression)” value ([3]; listed as Wasp-twister) was “approximately 97%”. The “fold reduction (suppression)” value ([3]; listed as wild type twister ribozyme) was 44 fold.

B6: wasp-twister Mutant: Cleavage-incapable mutant wasp twister, A6 replaced with G, in 3′ UTR of pEGFP-C1 (nucleic acid)
DNA: GTGACCGCCGCCGGGATCACTCTCGGCATGGACGAGCTGTACAAGTAAACCGCGGCTTGTGATGCGGCCGTGTAAATAATTTACACGTCGGTCTCAAGCCCGATAAACGCAGAGAGCAAGGCGGCCGCCATACCACATTTGTAGAGGTTTTACTTGCTTTAAAAAACCTCCCACACCTCCCCCTGAACCTGAAACATAAAATGAATGC
modifications: misc_feature 1..208 wasp-twister-mut in pEGFP-C1
notes: Cleavage-incapable mutant wasp twister, A6 replaced with G, in 3′ UTR of pEGFP-C1
For B6, the “effect on GFP expression (in words)” value [3] was “did not cause a reduction in GFP expression” and the “effect on GFP expression (in words)” value ([3]; listed as A6G mutation) was “completely abolished the suppression in GFP expression”.

B7: Luc_wasp_No Sac 0HP: Firefly luciferase construct with wasp twister without SacII sequence in 3′ UTR (nucleic acid)
DNA: TCAGAGAGATCCTCATAAAGGCCAAGAAGGGCGGAAAGATCGCCGTGTAAACTTGTAATGCGGCCGTGTAAATAATTTACACGTCGGTCTCAAGCCCGATAAACGCAGAGAGCAAGGCGGCCGCCATACCACATTTGTAGAGGTTTTACTTGCTTTAAAAAACCTCCCACACCTCCCCCTGAACCTGAAACATAAAATGAATG
modifications: misc_feature 1..203 wasp_No Sac 0HP in pLuc
For B7, the “fold reduction of luciferase activity” value [1] was 101 fold.

B8: GFP_wasp_no Sac 0HP: GFP wasp-twister construct with SacII sequence at 5′ end of twister deleted (nucleic acid)
DNA: GTGACCGCCGCCGGGATCACTCTCGGCATGGACGAGCTGTACAAGTAAACTTGTAATGCGGCCGTGTAAATAATTTACACGTCGGTCTCAAGCCCGATAAACGCAGAGAGCAAGGCGGCCGCCATACCACATTTGTAGAGGTTTTACTTGCTTTAAAAAACCTCCCACACCTCCCCCTGAACCTGAAACATAAAATGAATGC
modifications: misc_feature 1..202 wasp_no Sac 0HP in pEGFP-C1
For B8, the “fold reduction (suppression)” value [3] was 68 fold.

B9: GFP_wasp_no Sac 3HP: GFP wasp-twister construct with SacII site replaced by CGC creating 3 base pair stem (3HP) at P1 stem (nucleic acid)
DNA: GTGACCGCCGCCGGGATCACTCTCGGCATGGACGAGCTGTACAAGTAAACGCCTTGTAATGCGGCCGTGTAAATAATTTACACGTCGGTCTCAAGCCCGATAAACGCAGAGAGCAAGGCGGCCGCCATACCACATTTGTAGAGGTTTTACTTGCTTTAAAAAACCTCCCACACCTCCCCCTGAACCTGAAACATAAAATGAATGC
modifications: misc_feature 1..205 wasp_no Sac 3HP in pEGFP-C1
notes: GFP wasp-twister construct with SacII site replaced by CGC creating 3 base pair stem (3HP) at P1 stem
For B9, the “fold reduction (suppression)” value [3] was 104 fold.
